For the data set the following is noted: Capra hircus; pH 7.5; 25 °C; GdnHCl; CD; Tris 20 mM; Ca2+ 10 mM; whole UniProt chain shown.

Denaturant m value and unfolding free energy data for 1 protein are collected here from FireProtDB (doi:10.1021/bi0512400).

B1: Alpha-lactalbumin wild type, P00712 (protein)
chain: MMSFVSLLLVGILFHATQAEQLTKCEVFQKLKDLKDYGGVSLPEWVCTAFHTSGYDTQAIVQNNDSTEYGLFQINNKIWCKDDQNPHSRNICNISCDKFLDDDLTDDIVCAKKILDKVGINYWLAHKALCSEKLDQWLCEKL
As to B1, the denaturant m value stood at 3 kcal/mol/M and the unfolding free energy was 10.2 kcal/mol.
